Assay: soluble on expression in E. coli; label from the status in PepcDB or PDB records

Q: For “MGSDKIHHHHHHMKLEFTCGEEITIKEVNKLKLELMTSGKGDVEKELERLKKNKNKVHDIKTEETIDLLDRCAKLWLDDNYSKKHIETLAQITNQSFELVNYEFKSMMQMLLRENIQNTIKRELGEVDILDSWHKTNYGYEHRQPRGIIFHNISGNAFVVIPMSISMGLLSKNCNLVKVSKDEPYFAYAFYKSLCELDETVKDRLSVLYFDSSKTEIYDTIVKNSDGVIHWGGEYSSRIIGEMCAKYQKHMIMHGAKISFEVVDKCDDLNKVSEEIAKDIICWEQKACLSPRVVFLNDKIDVDEFSHCLSASLRKITEVIPKAYLSEWNSVKTIQDRQYCTLKYGMKNERRFKVYSSFNADYTVILSDGMPEKEDINKCFYRFIFVCPYSSKSDVVNYVSENLKDYLQTMGYSGNDEEFIEKMTLLGVSIVTKPGKMSLHEPGTSHDGIHNLKEFTFLVSRQI”, which “soluble on expression in E. coli” value is on record?
A: Its value is “not soluble”.

Q: For “NALPAGNYLVASPQRYNPPGVLDSQTELPRLLAQARREVRVQLLDYAPLSYGPDKTRPYYAVIDNAIRSAAARGVSIKLMVSDWNTGMPEVAYLKSLALVPNVQVRIVTLPVAAEGFIPYARVIHSKTMDIDDQVAWVGTSNWLGGYLDNSRNLEVVMHDSTMAKRIGVLHEQLWDGPYAKPIDINRDYPEPH”, which “soluble on expression in E. coli” value is on record?
A: Its value is “not soluble”.

Q: With “MGRGRKHTDAAAEQRELAIKANIVDEPFSVSAIDRSIRKAEWVKTETDQILSGRCPETDGTWLGISTRGRVAFLVEAGTINRDRFNGAESRTLEFLESNESPEDFAKSSAADYIRNKNTAAFHLIVADIASNSMLYISKPRFSDYGIVYTEPVGPGVHTLSSAGLDSDVGYRDLRMRHSFCEMINRERLPPIRDIAEIMYDPVKAYESVLLSSIFFVDMKIGYEHYGTRITTALVVKRTKEVLFFERYREIFNDDWDDHDFAFTII” as the sequence, how does the “soluble on expression in E. coli” value read?
A: Its value is “not soluble”.

Q: For “GAMAQVPTDPGYFSVLLDVKHFSPEEISVKVVGDHVEVHARHEERPDEHGFIAREFHRRYRLPPGVDPAAVTSALSPEGVLSIQATPASAQASLPSPPAAK”, which “soluble on expression in E. coli” value is on record?
A: The value was “soluble”.

Q: With “MEHEIGNISIARIRQMNPSLKGINNDFVMDRSEHYIPENMNPIFKYPLRLDGIIISIREKGSAKVNINLREYDIEQNDLIICAPGDILQSMLSPGIHLSQMFLISSDFLKEMYINLNSFMPFFISLKENPKFHLMEEEVQELKSFYELIEETVSRNDNFRTEIVRRLMGAYLYKIGSILHRKQPEFLSENPKSLKREEVLFNQFINLLTEHHRKERRVDFYAEQLFLSPKHFSTVVKKVSGKTAGEWIDEYVILEAKALLKYSVMSIQEVAYFMNFPNPSFFGKYFKHHTGLSPSEYKMQ” as the sequence, how does the “soluble on expression in E. coli” value read?
A: The value was “not soluble”.

Q: For “SKYGLQDSDEEEEEHPSKTSTKKLKTAPLPPASQTTPLQMALNGKPAPPPQVEKKGQLEHHHHH”, which “soluble on expression in E. coli” value is on record?
A: The value was “soluble”.

Q: With “VTALLDVNVLIALGWPNHVHHAAAQRWFTQFSSNGWATTPITEAGYVRISSNRSVMQVSTTPAIAIAQLAAMTSLAGHTFWPDDVPLIVGSAGDRDAVSNHRRVTDCHLIALAARYGGRLVTFDAALADSASAGLVEVL” as the sequence, how does the “soluble on expression in E. coli” value read?
A: Its value is “not soluble”.

Q: Which “soluble on expression in E. coli” value does the source give for “SAAVGAEARGAWCVPCLVSLDTLQELCRKEKLTCKSIGITKRNLNNYEVEYLCDYKVVKDMEYYLVKWKGWPDSTNTWEPLQNLKCPLLLQQFSNDKHNYLSQVITSEEAERRGQFYDNKGITYLFDLDYESDEFTVDAARYGNVSHFVNHSCDPNLQVFNVFIDNLDTRLPRIALFSTRTINAGEELTFDYQMKGSGDISSDSIDHSPAKKRVRTVCKCGAVTCRGYLN” here?
A: Its value is “soluble”.

Q: Which “soluble on expression in E. coli” value does the source give for “MGSDKIHHHHHHMADTTPDVETDKCDDLLESLRRGRPAAGQDPVKRSQIIDGARRVFIEKGFEAASMNDITREAGVSKGTIYVYFANKEELFEALIEEERGTIFKNMYDMLDRADDLRQTLVKFGKVLSMKITSARVIQAQRTVIGASDRIPDMGARFYERGPKRGHDKVVKFLNAAIERGLLKIDDVDLAAYQFTELCLAGLFRQCIFAYRTKAPSQEEIDHIVRSGVDMFLKNYGTEQLAEEESHQMIALEAKA” here?
A: Its value is “not soluble”.

Q: With “MAILGLGTDIVEISRIQAVVERTGERLARRILSPSEWQHYQQHQQPVRFLAKRFAVKEAAAKAFGTGIRNGLAFNQFEVVNDALGKPTLRLHSRAAELAVELGVKSLHVTLADERRYACATVIIES” as the sequence, how does the “soluble on expression in E. coli” value read?
A: Its value is “not soluble”.

Q: Which “soluble on expression in E. coli” value does the source give for “MKKVIFKPLKSYPVKMAMIALTLLAASPITHAEESKMKNATITVTATGENQATPDMAIINLAVVTQDKTAQKALADNNKSMNDIINAFKNNGIQANDLQTSGLSIYQSNPNKDHEKKNNGIVYHVSNSLTVRIRDLSNAGKIFDQAMALGVNSVHGITFTNANTKPFYQEARKKAIAEAIEKAKTIAEAADLKLGKIIKINENDDNYYSRPHLMSKAVNANYTDTTFSSGELNYSVSVTIVFAID” here?
A: The value was “not soluble”.

Q: For “GMDKLTHYRHTIQEIIKKYYDLSNSQPATATETKISDDLPDTVGDRLIIDEQRDQYLWLCCGWDGKKRVQHIILYLQIQNGKIWIEEDSTNLAIVDEMLVAGIPQTDIILGFHHPSKRGLTEFAIA”, which “soluble on expression in E. coli” value is on record?
A: Its value is “soluble”.

Q: With “MGSDKIHHHHHHMSTRQLLRNHYVQVDRSKKPYCFLLAKEPEYNDILNNYRIPLGEYQFKRTLFAREWLYKDVWHEMVSFAFCREPLSRCISAFFYLWEAEAQRRAWLPSFNGALNAHGYGLDYSFDQFLDAVVACRDSGSNFSPMGLHFSTHTATMWDDVTDSGGSILLSNIFRLEDLIHGINHVFSVCGVPDKAKPLLRDINTNETKRPFTPSRHHIAKVEDLYGKDFELYETYGRLF” as the sequence, how does the “soluble on expression in E. coli” value read?
A: Its value is “not soluble”.

Q: Which “soluble on expression in E. coli” value does the source give for “MAHHHHHHMDDYHDDDVHSNYGYEDDEYDDAADDWEAEAAEEEQRAVAEEAARQARLEKKLATRAPVKKEEEEEAVPEDVERAMADMRQVANDIASGSALLSGGDSEELIGNHKLASDADVERVGTMIADRLTSFSDSGHYDKLIVEVFQRLTNHLTSTHLLNEEADRVHRLREELKRAAKAKLKPVEKAPVTQSGLDLDNFEDRGGAAVADNEDETGW” here?
A: The value was “soluble”.

Q: For “MGSDKIHHHHHHMLNKRAQILLKTLVERYISEGQPVGSRSLSKFSGLDLSAATIRNVMADLEDMGLVASPHASAGRIPTHQGYRFFVDTLLVVKPLDVIEIHQLQDQLHPDNPSRLINSASQLLAELTRFAGVVVSPKRNSAIFRYIEFMSLSEKRVLLIIVTPEGDVQNRVLFTDRNYSQSELTEAANFINHNYAGCAIDEIRTRLQSELKQLRQDMTSLMTAAIDAGDAAIRENSEAVIVAGERKLLDVQDLSSNMASLKKLFDLFERKTALLQLLEFSRKAEGVQIFIGEECGVVTMDEFSVVTAPYRVDGKMVGTVAVIGPTRMAYERVIPVVDMTARLLSSALSLH”, which “soluble on expression in E. coli” value is on record?
A: Its value is “not soluble”.

Q: For “MGSDKIHHHHHHMTRVEELLSQIKNLKTEKNAIILGHNYMEYSVQLVSDFTGDSYDLAVKAMKTNAKIILFAGVYFMAEQASALNPNKKVLSPDPNAGCTLSDSLDVKTLQEYKEKYPNAPVVLYINTSIYAKALADYIVTSSTAVKVVQKLNADTILFGPDANLANYVQQKVPNKKIIKVPPNGRCIVHANYTKQLVELARKKYPNALLMAHPEAPLEILESADFVGSTNQMIQFSKENKNEEFIVATEIGMINALKIKNPSKKFYPLVTTEACACARCPYMNMINLEKVKRSLEEEVYEVKVPEDIAERVKRAFENTMKLL”, which “soluble on expression in E. coli” value is on record?
A: Its value is “not soluble”.

Q: For “MIKIDDEAITFVVQGPVQASASRQQIAGITEQCLNSIRRFFPKSTIILSTWKGQPLDGLDYDQVLELDDPGANTVFYDGQPIKLNNNRQMYSTHMGLKAVKTPYAVKLRTDNLLTGRQFVELYERYADLPRAQNYQFLTQRVLTSSTFFISSHYGHPVHFHKSDLFDFGLTQDLLTIWSDRWIPELHFTLKPGYKARHPATEQVLCLNWISALLDEEHHIESKTCDHAGLGENFWPQFMANNLLMDCPENIGLDVTERFYKRGNLALEYDLKDWLHLNQITSIPYDKKRLYRYYRNQIGRILKKIHSFN”, which “soluble on expression in E. coli” value is on record?
A: The value was “not soluble”.

Q: Which “soluble on expression in E. coli” value does the source give for “KTGFFVGPMAEFTLPIIGIGADVAALYSQTDLGADGEKTMKLKTFAVPVNLKWSFGLGSMLGAYIAAGPQFDFNIGNKTWTRELSLKKSTTSFNVGAGLKLIRHLQLGVNYNFALSKTGTYEYYTEGESGDGHHSVNIKNNTWQVSLAYLF” here?
A: Its value is “not soluble”.

Q: For “MGSDKIHHHHHHLLGDDPFLVINGDVFIDTLPVMPELKSINPDNGCLAHLWLVENPSQHPNGDFGFVSQEGVTTAELSQGPLSADLKLNFTFSGIGLYHPQLFDDIPEGPVPLGPLLREKMALGQVQGQLHRSFWCDVGTLERLAQLETRLELAARR”, which “soluble on expression in E. coli” value is on record?
A: Its value is “not soluble”.

Q: With “MGCSHSKNKNSKSKSAILKKEHPLERSIHHNRVAHFDETQPTSQSTSVESEELNVKHYSKTLLNDTVEPTHQKTSAHVPEKSIKKQEVKQEVKKHETTTVVHTNVHVPKPTHKLPQASEIPIERMGSDPHTAIAPTYQQKQFATSTYYPMPTIGEKQKSPEKAKPARKVDNTDEKKRKKDQNEKPVINGPNVRHQLTPEDLEYIKRSVQQRNERRAFMMAHRNETDDTLYELEVRMPEKDYTNRMEVGQNYRVC” as the sequence, how does the “soluble on expression in E. coli” value read?
A: Its value is “not soluble”.

Q: For “MDSQKLRTEGKKMLDFVADYWDGIRDRKPLPDVKPGYINDLVPAQAPATPEDWAKIFDDLENVVVNGATHWHHPHFFAYFPTALSYQSIMADILSGGIAGIGFTWKSCPSMTELEMSSLDWVVDLMGLPEHFKNSHNGPGCGIIQSTASDSTMIAIMAARATHVERIKSEPTFMKWVSETGVGKTLKNIFDRVKVNKVDDEASGMITPYFHDPTVFERFVMYCSDQAHSSVEKGAMLSAVRMRKLKATRGFLGNYGVSRETLQNAIKEDRARGYIPFMFLATVGTTCSCGVDQVDELGPVCVEEGLYLHVDAAYAGTFALCEEFKYLIRGMEHVDSFNFNLHKAGMVNFDCSPMWFKNGTHVSRYFNVDAVYLAHEYQTTASDYRHLQVALGRRFRSLKIWFVLRNMGVDKIREYLRRTELLAAEFSKLILENGKFEHFVPQHLGLTCFRLKNSTNADNEKLCNAINDDRRIHLVPSTVHGTYFLRMVVCSQLTTLDDIIYARDVIFELAEKLF”, which “soluble on expression in E. coli” value is on record?
A: The value was “not soluble”.

Q: Which “soluble on expression in E. coli” value does the source give for “MGSDKIHHHHHHSDDNKTTGATYDPNQPVTVESFMPVEGKLREKVIVKGSNFGTDKSKVKVYFVDEAAERLSTVIGIDNNTLYCLAPRQLPGGNRIKVIVDGKEVTTDGTFKYEQAQNVSTISGSASKDGNDDGDLASAKFKYMWGIAAVGNNTVLAYQRDDPRVRLISVDDNKVTTVHPGFKGGKPAVTKDKQRVYSIGWEGTHTVYVYMKASGWAPTRIGQLGSTFSGKIGAVALDETEEWLYFVDSNKNFGRFNVKTQEVTLIKQLELSGSLGTNPGPYLIYYFVDSNFYMSDQNLSSVYKITPDGECEWFCGSATQKTVQDGLREEALFAQPNGMTVDEDGNFYIVDGFKGYCLRKLDILDGYVSTVAGQVDVASQIDGTPLEATFNYPYDICYDGEGGYWIAEAWGKAIRKYAVE” here?
A: Its value is “not soluble”.

Q: With “MSLNVVVQKYGGSSVATPERIKNVAQRIKKKVDEGYKVVVVVSAMGKTTDNLIKLAKEISPRPDSRELDMLLATGEQVSAALLSMALKDLGVKAKSLNAFQVKIKTTPHHTSARIVDIDDSVIRENLKDYDVLVVTGFQGVNEHGDLTTLGRGGSDTSAVALAAKLRVPCEIYSDVDGIYTCDPRVHPRAKKLAYITYDEALELTALGAKVLHSRSVEIAKKYGIPIYCASSFTEEEGTMVVERLPEWLEEPVVTGATISHGQIKVSISFLPKDVKYITAIFEEVGKRALNVDMISLVPSNGKVFLSFTILEDHKEDLDEALKEALRDVEGWKSTYEGGFAKLSIVGVGMRTSPGVAARFFEALERAGVTPELVTTSEIKISCLVPEEKAEEALKSVIEEFELEGHHHHHH” as the sequence, how does the “soluble on expression in E. coli” value read?
A: The value was “soluble”.

Source: the DeepSol protein solubility set
